Test results from article PMC6880163 (Journal of Virology, 2019).

Molecular target: the molecule itself
Assay: cross-linking; intact doxycycline-induced HT1080 cells in 1x PBS treated with 0.2 mM EGS (membrane-permeable) for 30 min at room temperature, lysed in LDS sample buffer, Western blot with anti-RFP antibody

| Protein | stoichiometry N |
| --- | --- |
| TagRFP/TRIM69 V95A L96A double mutant (natural protein, human, UniProt Q86WT6 1-500, looked up, also called multimerization-defective mutant of TRIM69; not shown: TagRFP, N-terminal, kept) MEVSTNPSSNIDPGDYVEMNDSITHLPSKVVIQDITMELHCPLCNDWFRDPLMLSCGHNFCEACIQDFWRLQAKETFCPECKMLCQYNNCTFNPAADKLVEKIKKLPLLKGHPQCPEHGENLKLFSKPDGKLICFQCKDARLSVGQSKEFLQISDAVHFFTEELAIQQGQLETTLKELQTLRNMQKEAIAAHKENKLHLQQHVSMEFLKLHQFLHSKEKDILTELREEGKALNEEMELNLSQLQEQCLLAKDMLVSIQAKTEQQNSFDFLKDITTLLHSLEQGMKVLATRELISRKLNLGQYKGPIQYMVWREMQDTLCPGLSPLTLDPKTAHPNLVLSKSQTSVWHGDIKKIMPDDPERFDSSVAVLGSRGFTSGKWYWEVEVAKKTKWTVGVVRESIIRKGSCPLTPEQGFWLLRLRNQTDLKALDLPSFSLTLTNNLDKVGIYLDYEGGQLSFYNAKTMTHIYTFSNTFMEKLYPYFCPCLNDGGENKEPLHILHPQ | 2 |
| TagRFP/TRIM69 L99A single mutant (natural protein, human, UniProt Q86WT6 1-500, looked up, also called multimerization-defective mutant of TRIM69; not shown: TagRFP, N-terminal, kept) MEVSTNPSSNIDPGDYVEMNDSITHLPSKVVIQDITMELHCPLCNDWFRDPLMLSCGHNFCEACIQDFWRLQAKETFCPECKMLCQYNNCTFNPVLDKAVEKIKKLPLLKGHPQCPEHGENLKLFSKPDGKLICFQCKDARLSVGQSKEFLQISDAVHFFTEELAIQQGQLETTLKELQTLRNMQKEAIAAHKENKLHLQQHVSMEFLKLHQFLHSKEKDILTELREEGKALNEEMELNLSQLQEQCLLAKDMLVSIQAKTEQQNSFDFLKDITTLLHSLEQGMKVLATRELISRKLNLGQYKGPIQYMVWREMQDTLCPGLSPLTLDPKTAHPNLVLSKSQTSVWHGDIKKIMPDDPERFDSSVAVLGSRGFTSGKWYWEVEVAKKTKWTVGVVRESIIRKGSCPLTPEQGFWLLRLRNQTDLKALDLPSFSLTLTNNLDKVGIYLDYEGGQLSFYNAKTMTHIYTFSNTFMEKLYPYFCPCLNDGGENKEPLHILHPQ | 2 |
